{
  "source": "paper doi:10.1101/2022.09.14.507916",
  "target": "octameric HlgAB pore complex of γ-hemolysin (four HlgA and four HlgB, alternating) (Staphylococcus aureus (strain Newman))",
  "test": "cryo-EM structure",
  "data": [
    {"substance": "octameric HlgAB pore complex of γ-hemolysin (four HlgA and four HlgB, alternating)", "values": [
      {"measurement": "stoichiometry N", "result": 6}
    ]}
  ]
}
